Earlier results on one substance are cited in article PMC12869367.

This data set addresses DMBT1S8L (Homo sapiens) (UniProt Q9UGM3).
UniProt Q9UGM3, sequence (Q9UGM3 20-2413): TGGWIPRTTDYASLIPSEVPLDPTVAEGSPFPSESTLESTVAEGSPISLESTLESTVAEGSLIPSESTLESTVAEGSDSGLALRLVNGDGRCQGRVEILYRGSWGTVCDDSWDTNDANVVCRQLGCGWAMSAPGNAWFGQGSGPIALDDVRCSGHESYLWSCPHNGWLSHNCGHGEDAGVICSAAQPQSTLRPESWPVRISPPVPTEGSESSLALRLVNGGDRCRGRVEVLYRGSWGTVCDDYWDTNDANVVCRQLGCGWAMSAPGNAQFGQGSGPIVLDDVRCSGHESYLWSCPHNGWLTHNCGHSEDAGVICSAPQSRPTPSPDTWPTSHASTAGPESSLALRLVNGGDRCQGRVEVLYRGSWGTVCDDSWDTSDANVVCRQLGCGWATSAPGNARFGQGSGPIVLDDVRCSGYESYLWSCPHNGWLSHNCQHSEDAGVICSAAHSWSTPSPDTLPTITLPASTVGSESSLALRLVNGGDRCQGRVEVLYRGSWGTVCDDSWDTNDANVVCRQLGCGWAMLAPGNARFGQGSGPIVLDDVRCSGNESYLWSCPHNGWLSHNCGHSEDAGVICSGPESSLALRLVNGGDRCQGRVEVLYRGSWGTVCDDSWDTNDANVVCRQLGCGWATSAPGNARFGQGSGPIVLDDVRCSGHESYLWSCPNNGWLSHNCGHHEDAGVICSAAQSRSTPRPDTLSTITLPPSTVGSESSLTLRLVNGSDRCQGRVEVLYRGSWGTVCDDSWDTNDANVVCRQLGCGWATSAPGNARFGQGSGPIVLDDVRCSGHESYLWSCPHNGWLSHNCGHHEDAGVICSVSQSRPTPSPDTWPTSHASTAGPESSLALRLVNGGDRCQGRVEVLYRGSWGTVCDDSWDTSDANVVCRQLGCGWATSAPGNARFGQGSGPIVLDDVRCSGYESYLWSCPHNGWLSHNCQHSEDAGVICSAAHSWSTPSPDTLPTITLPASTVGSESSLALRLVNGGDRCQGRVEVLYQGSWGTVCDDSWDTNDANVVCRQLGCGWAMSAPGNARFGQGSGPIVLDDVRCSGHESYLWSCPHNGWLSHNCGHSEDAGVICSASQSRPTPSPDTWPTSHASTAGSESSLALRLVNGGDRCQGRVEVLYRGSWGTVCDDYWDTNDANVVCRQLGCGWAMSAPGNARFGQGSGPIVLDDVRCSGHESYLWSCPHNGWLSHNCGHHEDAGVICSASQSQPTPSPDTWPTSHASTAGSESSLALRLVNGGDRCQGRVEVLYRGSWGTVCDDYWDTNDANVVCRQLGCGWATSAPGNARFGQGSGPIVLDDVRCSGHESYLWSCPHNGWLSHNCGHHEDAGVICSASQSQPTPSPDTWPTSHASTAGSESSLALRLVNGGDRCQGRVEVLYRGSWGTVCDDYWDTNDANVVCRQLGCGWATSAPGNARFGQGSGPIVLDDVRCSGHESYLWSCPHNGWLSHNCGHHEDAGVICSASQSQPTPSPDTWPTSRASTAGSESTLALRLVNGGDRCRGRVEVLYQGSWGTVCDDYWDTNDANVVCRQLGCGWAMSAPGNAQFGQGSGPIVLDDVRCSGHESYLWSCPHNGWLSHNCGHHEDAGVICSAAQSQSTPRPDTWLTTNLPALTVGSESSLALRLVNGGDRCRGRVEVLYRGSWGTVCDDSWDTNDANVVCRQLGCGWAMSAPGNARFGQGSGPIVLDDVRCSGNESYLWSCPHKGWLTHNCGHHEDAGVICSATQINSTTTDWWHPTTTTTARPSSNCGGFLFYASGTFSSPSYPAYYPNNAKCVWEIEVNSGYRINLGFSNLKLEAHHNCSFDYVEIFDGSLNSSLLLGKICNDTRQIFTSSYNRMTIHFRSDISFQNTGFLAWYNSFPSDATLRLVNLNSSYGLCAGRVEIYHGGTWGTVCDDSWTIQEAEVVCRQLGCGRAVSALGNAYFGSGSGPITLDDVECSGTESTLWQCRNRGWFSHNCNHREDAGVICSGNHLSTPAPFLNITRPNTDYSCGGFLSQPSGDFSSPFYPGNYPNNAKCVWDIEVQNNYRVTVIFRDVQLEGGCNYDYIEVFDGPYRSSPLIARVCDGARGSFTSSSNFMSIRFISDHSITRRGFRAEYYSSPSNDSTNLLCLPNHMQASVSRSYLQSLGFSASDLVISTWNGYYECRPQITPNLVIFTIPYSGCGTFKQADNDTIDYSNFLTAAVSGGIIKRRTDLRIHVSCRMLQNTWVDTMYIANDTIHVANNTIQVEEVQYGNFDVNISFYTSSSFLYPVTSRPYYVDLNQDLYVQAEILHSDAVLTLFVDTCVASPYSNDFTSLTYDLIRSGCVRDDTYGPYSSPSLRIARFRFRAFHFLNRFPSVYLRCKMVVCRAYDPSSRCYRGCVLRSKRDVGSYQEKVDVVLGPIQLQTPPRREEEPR

In general, Kd refers to the free concentration of one partner at which half of the binding sites on the other are occupied at equilibrium, for simple one-to-one binding. Siglec-8-Fc (from UniProt Q9NYZ4): the dissociation constant Kd was 0.06 nM.
